Reference: US20110027269A1
The star is where a group is joined. Biotin = O=C1N[C@H]2[C@H](CS[C@H]2CCCCC(=O)*)N1

Molecular target: 14-3-3 proteins present within the KLCCM
Test: cell-based or functional assay

MMP-1 expression in dermal fibroblasts treated with KLCCM (western blot, MMP-1/β-actin ratio): 68.8 % reduction
B1: biotinylated R18 (peptide)
peptide: Biotin-PHCVPRDLSWLDLEANMCLP-OH
modifications: cysteine pairing not given here
